The test concerns the target GAPDH (Homo sapiens, UniProt P04406). Nature of the test: ELISA.

Chain of GAPDH (P04406 2-335): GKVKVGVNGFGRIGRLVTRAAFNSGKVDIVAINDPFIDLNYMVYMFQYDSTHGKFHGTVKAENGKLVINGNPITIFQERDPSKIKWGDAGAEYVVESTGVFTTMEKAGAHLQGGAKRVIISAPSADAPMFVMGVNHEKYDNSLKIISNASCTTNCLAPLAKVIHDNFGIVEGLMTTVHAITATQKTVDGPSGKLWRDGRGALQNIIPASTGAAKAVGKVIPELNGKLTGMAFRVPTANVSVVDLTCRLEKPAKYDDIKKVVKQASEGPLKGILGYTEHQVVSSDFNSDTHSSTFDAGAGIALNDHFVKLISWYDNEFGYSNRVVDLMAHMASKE

B1: TRAF2 (protein)
chain: AAASVTPPGSLELLQPGFSKTLLGTKLEAKYLCSACRNVLRRPFQAQCGHRYCSFCLASILSSGPQNCAACVHEGIYEEGISILESSSAFPDNAARREVESLPAVCPSDGCTWKGTLKEYESCHEGRCPLMLTECPACKGLVRLGEKERHLEHECPERSLSCRHCRAPCCGADVKAHHEVCPKFPLTCDGCGKKKIPREKFQDHVKTCGKCRVPCRFHAIGCLETVEGEKQQEHEVQWLREHLAMLLSSVLEAKPLLGDQSHAGSELLQRCESLEKKTATFENIVCVLNREVERVAMTAEACSRQHRLDQDKIEALSSKVQQLERSIGLKDLAMADLEQKVLEMEASTYDGVFIWKISDFARKRQEAVAGRIPAIFSPAFYTSRYGYKMCLRIYLNGDGTGRGTHLSLFFVVMKGPNDALLRWPFNQKVTLMLLDQNNREHVIDAFRPDVTSSSFQRPVNDMNIASGCPLFCPVSKMEAKNSYVRDDAIFIKAIVDLTGL
Molecule B1 showed a dissociation constant Kd of 96 µM.

In general, Kd refers to the concentration at which binding is half-saturated. High values mean lower affinity, low ones higher affinity.

Values taken from publication PMC3553500 (2013).
